This is an account of results in article PMC2629585.

The target of assay [1] is C-reactive protein (CRP), human, purified (Sigma) (human) (UniProt P02741). Kind of assay: SPR; BIAcore 2000; POPC on HPA chip, 200 nM CRP injected and captured, then L-rFBG injected at 30 ul/min; normal condition: 50 mM Tris, 145 mM NaCl, 2.5 mM calcium, pH 7.4. On the technique in general: Surface plasmon resonance follows binding to a sensor surface in real time, without labels.

The target is the same in assay [2]. Kind of assay: SPR; BIAcore 2000; POPC on HPA chip, 200 nM CRP injected and captured, then L-rFBG injected at 30 ul/min; infection-inflammation condition: 50 mM MES, 145 mM NaCl, 2 mM calcium, pH 6.5.

Chain of C-reactive protein (CRP), human, purified (Sigma) (human) (P02741 19-224): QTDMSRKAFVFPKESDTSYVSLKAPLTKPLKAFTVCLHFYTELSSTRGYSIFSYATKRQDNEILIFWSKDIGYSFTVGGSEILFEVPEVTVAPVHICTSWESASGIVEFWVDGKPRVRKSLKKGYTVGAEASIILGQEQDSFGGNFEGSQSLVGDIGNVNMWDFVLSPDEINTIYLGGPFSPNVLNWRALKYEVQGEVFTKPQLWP

For “recombinant FBG domain of L-ficolin (L-rFBG) (domain or fragment)”, the figures for the Kd in assay [1] and in assay [2] were 1110 nM and 12.6 nM, respectively.
